{
  "source": "the nanobody polyreactivity screen of Harvey et al. (2022)",
  "data": [
    {"experiment": "yeast display, Sf9 membrane polyspecificity reagent, FACS + sequencing; frameworks hold sequencing errors", "outline": "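After 36–48 hours of galactose induction, yeast (Saccharomyces cerevisiae BJ5465) displaying a synthetic nanobody library were stained at 4 °C for 1 hour with 10% biotinylated, detergent-solubilized Sf9 membrane reagent. Streptavidin microbeads enriched the stained cells before FACS sorting into low and high (top ~1%) gates on anti-HA and streptavidin fluorescence. Each clone's polyreactivity label reflects its gate of origin.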", "values": [
      {"sequence": "QVQLVESGGGLVQAGGSLRLSCAASGFIIYGYAMGWYRQAPGKESELVAAISRRSASTYYADSVKGRFTISRDNAKNTVYLQMNSLNPEDTAVYYCNAASARGVIGYKPLWYARGYWGQGTQVTVSS", "polyreactivity (PSR sort gate)": "high polyreactivity"},
      {"sequence": "QVQLVESGGGLVQAGGSLRLSCAASGFIIYRNPMGWYRQAPGKERELVAGISSGGSTNYADSVKGRFTISRDNEKNTVYLQMNSLKPEDTAVYYCASRVYALWFGRYDYWGQGTQVIVSS", "polyreactivity (PSR sort gate)": "high polyreactivity"},
      {"sequence": "QVQLVESGGGLVQAGGSLRLSCAASGFIIYSYAMGWYRQAPGKERELVAVISSRGGTTYYADSVKGRFTISRDNAKNTVYLQMNSLKPEDTAVYSCNVDRLGQRSDYWGQGTQVTVSS", "polyreactivity (PSR sort gate)": "low polyreactivity"},
      {"sequence": "QVQLVESGGGLVQAGGSLRLSCAASGFILATYAMGCYRQAPGKERELVAAISASGSSTYYADSVKGRFTISRDNAKNTVYLQMNSLKPEDTAVYYCAASWGYGALTPDMGYWGQGTQVTVSS", "polyreactivity (PSR sort gate)": "low polyreactivity"},
      {"sequence": "QVQLVESGGGLVQAGGSLRLSCAASGFILAYYAMGWSRQAPGKERELVAAISIGSSTDYADSVKGRFTISRDNAKNTVYLQINSVKPEDTAVYDFAARDYYYEYDYWGQGTQVTVSS", "polyreactivity (PSR sort gate)": "low polyreactivity"},
      {"sequence": "QVQLVESGGGLVQAGGSLRLSCAASGFILAYYAMGWYRQSPGKERELVAAISIGSSTDYADSVKGRFTISRDNAKNTVYLQMNSLKPEDTAVYYCAARDYYYEYDYWGQGTQVTVSS", "polyreactivity (PSR sort gate)": "low polyreactivity"},
      {"sequence": "QVQLVESGGGLVQAGGSLRLSCAASGFILDFNAMGWYRQAPGKERELVAAISISGVSTYYADSVKGRFTISRDNAKNTVYLQMNSLKPEDTAVYYCAAAQDAAVYWRPGGYDYWGQGTQVTVSS", "polyreactivity (PSR sort gate)": "low polyreactivity"},
      {"sequence": "QVQLVESGGGLVQAGGSLRLSCAASGFILDRYAMGWYRQAPGKERELVASITSGGSTNYADSVKGRFTISRDNAKNTVYLQMNSLKPEDTAVYYCAAYPWRYWNHEYNYWGQGTQVTVSS", "polyreactivity (PSR sort gate)": "high polyreactivity"},
      {"sequence": "QVQLVESGGGLVQAGGSLRLSCAASGFILDYNAMGWSRQAPGKERELVASIDSGGGTNYADSVKGRFTISRDNAKNTVYLQMNSLKPEDTAVYYCAADVTLWYDYGGQGTQVTVSS", "polyreactivity (PSR sort gate)": "low polyreactivity"},
      {"sequence": "QVQLVESGGGLVQAGGSLRLSCAASGFILFPNAMGWYRQAPGKERELVAAITSGGRTNYADSVKGRFTISRDNAKNTVYLQMTSLKPEDTAVYYCAYVGYWWGYDYWGQGTQVTVSS", "polyreactivity (PSR sort gate)": "low polyreactivity"},
      {"sequence": "QVQLVESGGGLVQAGGSLRLSCAASGFILGGYAMGWYRQAPGKERELVAAISWSSGSTYYADSVKGRFTISRDNAKNTVYLQMNSLIPEDTAVYYCAAVGAYDYWGQGTQVTVSS", "polyreactivity (PSR sort gate)": "low polyreactivity"},
      {"sequence": "QVQLVESGGGLVQAGGSLRLSCAASGFILGTNAMGWYRQAPGKERELVAAISSGGGSTYYADSVMGRFTISRDNAKNTVYLQMNSQKPEDTAVYYCAADNVWGYPEDDYWGQGTQVTVSS", "polyreactivity (PSR sort gate)": "low polyreactivity"},
      {"sequence": "QVQLVESGGGLVQAGGSLRLSCAASGFILIQYAMGWYRQAPGKERELVAAITWSDTSTNYADSVKGRFTISRDNAKNTVYLQMNSLKPEDTAVYYCNADLYGAQDRRLDYYAEGYWGQGTQVTVSS", "polyreactivity (PSR sort gate)": "low polyreactivity"},
      {"sequence": "QVQLVESGGGLVQAGGSLRLSCAASGFILLDNAMGWYRQAPGKEREFVASINISGDRTFYADSVKGRFTISRDNAKNTVYLQMNSLKPEDTAVYYCAKEPGWGRRSTTAYDYWGQGTQVTVSS", "polyreactivity (PSR sort gate)": "low polyreactivity"},
      {"sequence": "QVQLVESGGGLVQAGGSLRLSCAASGFILPTYAMGWYRQAPGKERELVAAITRSGGSTYYADSVKGRFTISRDNAKNTVYLQMNSLKPEDTAVYYCAAQRLSASRPYGYWGQGTQVTVSS", "polyreactivity (PSR sort gate)": "high polyreactivity"},
      {"sequence": "QVQLVESGGGLVQAGGSLRLSCAASGFILPYYTMGWYRQAPGKERELVAAITYSGASTFYADSVKGRFTISRDNAKNTVYLQMNSLKPEDTAVYYCAKEWSGWYESPLDDGDYDYWGQGTQVTVSS", "polyreactivity (PSR sort gate)": "low polyreactivity"},
      {"sequence": "QVQLVESGGGLVQAGGSLRLSCAASGFILQRYAMGWYRKAPGKERELVAAITSSGGRTYYADSVKGRFTISRDNANNTVYLQMNSLKPEDTAVYYCNTVLVYYRMIKFEYWGQGTQVTVSS", "polyreactivity (PSR sort gate)": "high polyreactivity"},
      {"sequence": "QVQLVESGGGLVQAGGSLRLSCAASGFILQYNAMGWYRQAPGKEREFVATITGSGGSTYYADSVKGRFTISRDNAKNTVYIQMYSLKPEDTAFYYCNAETYIDLSGKFPVDYDYWGQGTQVTVSS", "polyreactivity (PSR sort gate)": "low polyreactivity"},
      {"sequence": "QVQLVESGGGLVQAGGSLRLSCAASGFILRGYDMGWYRQATGKERELVATITTGGSTYYADSVKGRFTISRDNAKNTVYLQMNSLKPEDTAVYYCAGRRRGSVGVGYANPYNYWGQGTQVTVSS", "polyreactivity (PSR sort gate)": "high polyreactivity"},
      {"sequence": "QVQLVESGGGLVQAGGSLRLSCAASGFILRYYAMGWYRQAPGKERELVAAISSGGGTYYADSVKGRFTISRDNAKNTVYLQMNSLKPEDTAVYYCAAVYWGLWHWLYTDDDGDYWGQGTQVTVSS", "polyreactivity (PSR sort gate)": "high polyreactivity"},
      {"sequence": "QVQLVESGGGLVQAGGSLRLSCAASGFILRYYVMGWYRQAPGKERELVAAISSSGGRTYYADSVKGRFTISRDNAKNTVYLQMNSLKPEDTGVYYCATSTYAYRRKSYFYTRPRFGYWGQGYQVTVSS", "polyreactivity (PSR sort gate)": "high polyreactivity"},
      {"sequence": "QVQLVESGGGLVQAGGSLRLSCAASGFILSPNTMGWYRQAPGKERALVAAISSDVSTYADSVKGRFTISRDNAKNTVYLQMNSLKPEDTAVYYCNADAFGYASYEYWGQGTQVTVSS", "polyreactivity (PSR sort gate)": "low polyreactivity"},
      {"sequence": "QVQLVESGGGLVQAGGSLRLSCAASGFILVFYARGWYRPAPGKERELVAAIDWSGTITYYADSVKGRFTISRDNAKNTVYLQMNSLKPEDTAVYYCAADGEPFYDFYYWGQGTQVTVSS", "polyreactivity (PSR sort gate)": "high polyreactivity"},
      {"sequence": "QVQLVESGGGLVQAGGSLRLSCAASGFILVGYAMGWYRKAPGKERELVAAISSGDSTNYADSVKGRFTISRDNAKNSVYLQMNSLKPEDTAVYYCAARFIFWVYDYDYWGQGTQVTLSS", "polyreactivity (PSR sort gate)": "low polyreactivity"},
      {"sequence": "QVQLVESGGGLVQAGGSLRLSCAASGFILYFNAMGWYRQAPGKDRELVAVISCTGVRTNYADSVKGRFTISRDNAKNTVYLQMNSLKPEDTAVYYCAAGYYSYRPRDYWGQGTQVTVSS", "polyreactivity (PSR sort gate)": "low polyreactivity"},
      {"sequence": "QVQLVESGGGLVQAGGSLRLSCAASGFILYGNAMGWYRQAPGKERELVAAISRRGGSTYYADSVKGRFTISRDNAKNTVYLQMNSLKPEDTALYYCAKDGPGGGTRIYDYWGQGTQVTVSS", "polyreactivity (PSR sort gate)": "high polyreactivity"},
      {"sequence": "QVQLVESGGGLVQAGGSLRLSCAASGFILYYYALGWYRQAPGKEWEIVAAISRNGGRTYYADSVKGRFTISRDNAKNTVYLQMISLKPEDTAVDYCNKGVSRTLSSAYEYWGQGTQVTVSS", "polyreactivity (PSR sort gate)": "high polyreactivity"},
      {"sequence": "QVQLVESGGGLVQAGGSLRLSCAASGFIQDYYAMGWYRHAPGKERELDAAISSGGTDTYYADSVKGRFTVSRDTAKNTVYLQMNSLKPEDTAVYYFAADSYWSAYDYWGQGTQVTVSS", "polyreactivity (PSR sort gate)": "low polyreactivity"},
      {"sequence": "QVQLVESGGGLVQAGGSLRLSCAASGFIRGYYDMGWYRQAPGKERELVAAISSGGRTYYADSVKGRFTISRDNAKNTVYLQMNSLKPEDTAVYYFNAYAPRRRFDYWGQGTQVTVSS", "polyreactivity (PSR sort gate)": "high polyreactivity"},
      {"sequence": "QVQLVESGGGLVQAGGSLRLSCAASGFISDDYAMGWYRQAPGKERELVAAISDSGVDTYYADSVKGRFTISRDNAKNTVYLQMNSLKPEDTAVYYCNKRYVIRRRGYDYWGQGTQVTVSS", "polyreactivity (PSR sort gate)": "low polyreactivity"},
      {"sequence": "QVQLVESGGGLVQAGGSLRLSCAASGFISGSNVMGWYRQAPGKERELVAAINWSGDNTYYADSVKGRFTISRDNAKNTVYLQMNSLKPEDTAVYYCNADVYSYATPEMDYWGQGTQVTVSS", "polyreactivity (PSR sort gate)": "low polyreactivity"},
      {"sequence": "QVQLVESGGGLVQAGGSLRLSCAASGFISKYYAMVWYRQAPGKERELVAAITRSGTSTYYADSVKGRFTISRDNAKNTVYLQMNSLTPEDTAVYYCAAVSGGRTPRYYYWGQGTQVTVSS", "polyreactivity (PSR sort gate)": "high polyreactivity"},
      {"sequence": "QVQLVESGGGLVQAGGSLRLSCAASGFISRTNAMGWSRQEPGKERELVAGINSGGNTYYADSVKGRFTISRDNAKNTVYLQMNSLKPEDTADYYCAALWSLRRSRPRFDYWGQGTQVTVSS", "polyreactivity (PSR sort gate)": "high polyreactivity"},
      {"sequence": "QVQLVESGGGLVQAGGSLRLSCAASGFISSENAMGWYRQAPGKERELVAAISSGGSTNYADSVKGRFTISRDNAKNTVYLQMNSRKPEDTAVYYCAATLPGWYNEDDSWGQGTQVTVSS", "polyreactivity (PSR sort gate)": "low polyreactivity"},
      {"sequence": "QVQLVESGGGLVQAGGSLRLSCAASGFISSENAMGWYRQAPGKERELVAATSSGGSTNYADSVKGRFTISRDNAKNTVYLQMNSLKPEDTAVYYCAALFPKNLQKVGRYDYWGQGTQVTVSS", "polyreactivity (PSR sort gate)": "low polyreactivity"},
      {"sequence": "QVQLVESGGGLVQAGGSLRLSCAASGFISTINVMGCYRQAPGKERELVAAITYIDGSTFYADSVKGRFTISRDNAKNTVYFQMNSLKPEDTAVYYCASDLYLWGAVFLYVRSTGLDYWGQGTQVTVSS", "polyreactivity (PSR sort gate)": "low polyreactivity"},
      {"sequence": "QVQLVESGGGLVQAGGSLRLSCAASGFISTYYAMGWYRQAPGKERELVAAISWNGGSTYYADSVKGRFTISRDNAKNTVYLQMNSLKPEDTADYYCAAYLGKWRQFYSSDYDYWGQGTQVTVSS", "polyreactivity (PSR sort gate)": "low polyreactivity"},
      {"sequence": "QVQLVESGGGLVQAGGSLRLSCAASGFISVSNAMGWYRQAPGKERELVAAIRGSGGSTYYADSVKGRFTISRDNAKNTVYLQMNSLKPEDTAVYYCAATAYPRGSPPYNYWGQGTQVTVSS", "polyreactivity (PSR sort gate)": "high polyreactivity"},
      {"sequence": "QVQLVESGGGLVQAGGSLRLSCAASGFIVRYNAMGWYRQAPGKERELVAVITDSSDSTYYADSVKGRFTISRDNAKNTVYLQMNSLKPVDTAVYYCDTDYGYAGDYWGQGSQVTVSS", "polyreactivity (PSR sort gate)": "low polyreactivity"},
      {"sequence": "QVQLVESGGGLVQAGGSLRLSCAASGFIYARYAMGWYRQAPGKERELVAGISGGGGRTYYADSVKGRFTISRDNAKNTVYLQMNSLKPEDTAVYYCAATPQSRDRRFNYWGQGTQVTVSS", "polyreactivity (PSR sort gate)": "high polyreactivity"},
      {"sequence": "QVQLVESGGGLVQAGGSLRLSCAASGFIYDYAMGWYRQAPGKQREFVARINWSGGSTYYADSVKGRFTISRDNAKNTVYLQMNSLKPEDTAVYYCATSGWAWRTSNPYEYWGQGTQVTVSS", "polyreactivity (PSR sort gate)": "low polyreactivity"},
      {"sequence": "QVQLVESGGGLVQAGGSLRLSCAASGFIYGLYAMGWYRQAPGKERELVASISRRGGSTYSADSVKGRVTISRDNAKNTVYLQMNSLKPEDTAVYYCAVDIVSIRGYTYGYWGQGTQVTVSS", "polyreactivity (PSR sort gate)": "high polyreactivity"},
      {"sequence": "QVQLVESGGGLVQAGGSLRLSCAASGFIYHGYTMGWYSQAPGKERDLVAAITTSGTSTYYADSVKGRFTISRDNAKNTVYLQMNSLKPEDTAVYYCYDYVPGGYSRPYYYRFDHWGQGTQVTVSS", "polyreactivity (PSR sort gate)": "high polyreactivity"}
    ]}
  ]
}
